Changes are numbered by the printed parent chain. Names may count otherwise.
T1: human CD39 expressed at the cell surface (human, UniProt P49961 1-510)
T1 construct: On CHO transfectants, Hek-293T transfectants, Ramos and Mino tumor cells; also called huCD39; CHO-huCD39
T1 sequence: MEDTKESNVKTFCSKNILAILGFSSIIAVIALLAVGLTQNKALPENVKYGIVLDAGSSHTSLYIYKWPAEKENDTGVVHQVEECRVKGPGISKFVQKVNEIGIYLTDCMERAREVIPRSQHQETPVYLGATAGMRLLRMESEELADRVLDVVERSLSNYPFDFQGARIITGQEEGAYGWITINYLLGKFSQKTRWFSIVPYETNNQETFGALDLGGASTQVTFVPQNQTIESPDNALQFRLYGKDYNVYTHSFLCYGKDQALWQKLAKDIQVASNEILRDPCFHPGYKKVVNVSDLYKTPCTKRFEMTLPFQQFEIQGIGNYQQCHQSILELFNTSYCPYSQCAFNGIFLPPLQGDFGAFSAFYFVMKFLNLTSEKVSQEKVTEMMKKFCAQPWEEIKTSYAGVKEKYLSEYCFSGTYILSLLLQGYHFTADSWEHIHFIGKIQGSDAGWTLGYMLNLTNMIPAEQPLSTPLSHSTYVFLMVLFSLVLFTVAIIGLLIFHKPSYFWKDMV

B1: mAb2 H0L1 (antibody, human IgG1, V domains shown)
VH: QVQLVQSGAEVKKPGASVKVSCKASGYTFTDYNMHWVRQAPGQRLEWMGYIVPLNGGSTFNQKFKGRVTITRDTSASTAYMELSSLRSEDTAVYYCARGGTRFAYWGQGTLVTVSS
VL: DIVMTQSPDSLAVSLGERATINCRASESVDNFGVSFMYWFQQKPGQPPKLLIYGASNQGSGVPDRFSGSGSGTDFTLTISSLQAEDVAVYYCQQTKEVPYTFGGGTKVEIK
B2: mAb11 H2*L1 (antibody, human IgG1, V domains shown)
VH: B1 VH with N61S, V68A, R72V
VL: B1 VL
B3: mAb17 H3*L1 (antibody, human IgG1, V domains shown)
VH: B1 VH with M48I, N61S, K65Q, V68A, R72V
VL: B1 VL
B4: mAb22 H4*L0 (antibody, human IgG1, V domains shown)
VH: B1 VH with M48I, N61S, K65Q, V68A, R72V, S77R
VL: B1 VL with F40Y
B5: mAb1 H0L0 (antibody, human IgG1, V domains shown)
VH: B1 VH
VL: B1 VL with F40Y
B6: mAb7 H2L0 (antibody, human IgG1, V domains shown)
VH: B1 VH with V68A, R72V
VL: B1 VL with F40Y
B7: mAb10 H2*L0 (antibody, human IgG1, V domains shown)
VH: B1 VH with N61S, V68A, R72V
VL: B1 VL with F40Y
B8: mAb4 H1L0 (antibody, human IgG1, V domains shown)
VH: QVQLVQSGAEVKKPGASVKVSCKASGYTFTDYNMHWVRQAPGQRLEWMGYIVPLNGGSTFNQKFKGRVTITVDTSASTAYMELSSLRSEDTAVYYCARGGTRFAYWGQGTLVTVS
VL: B1 VL with F40Y
B9: mAb19 H4L0 (antibody, human IgG1, V domains shown)
VH: B1 VH with M48I, V68A, R72V, S77R
VL: B1 VL with F40Y
B10: mAb16 H3*L0 (antibody, human IgG1, V domains shown)
VH: B1 VH with M48I, N61S, K65Q, V68A, R72V
VL: B1 VL with F40Y
B11: mAb13 H3L0 (antibody, human IgG1, V domains shown)
VH: B1 VH with M48I, V68A, R72V
VL: B1 VL with F40Y
B12: mAb8 H2L1 (antibody, human IgG1, V domains shown)
VH: B1 VH with V68A, R72V
VL: B1 VL
B13: mAb5 H1L1 (antibody, human IgG1, V domains shown)
VH: B8 VH
VL: B1 VL
B14: mAb20 H4L1 (antibody, human IgG1, kappa, V domains shown)
VH: B1 VH with M48I, V68A, R72V, S77R
VL: DIVMTQSPDSLAVSLGERATINCRASESVDNFGVSFMYWFQQKPGQPPKLLIYGASNQGSGVPDRFSGSGSGTDFTLTISSLQAEDVAVYYCQQTKEVPYTFGGGTKVEIKR
notes: full heavy chain carries L234A/L235E/G237A/A330S/P331S
B15: mAb14 H3L1 (antibody, human IgG1, V domains shown)
VH: B1 VH with M48I, V68A, R72V
VL: B1 VL
B16: mAb6 H1L1* (antibody, human IgG1, V domains shown)
VH: B8 VH
VL: B1 VL with R24K
B17: mAb9 H2L1* (antibody, human IgG1, V domains shown)
VH: B1 VH with V68A, R72V
VL: B1 VL with R24K
B18: mAb21 H4L1* (antibody, human IgG1, kappa, V domains shown)
VH: B1 VH with M48I, V68A, R72V, S77R
VL: B14 VL with R24K
B19: mAb24 H4*L1* (antibody, human IgG1, V domains shown)
VH: B1 VH with M48I, N61S, K65Q, V68A, R72V, S77R
VL: B1 VL with R24K
B20: mAb18 H3*L1* (antibody, human IgG1, V domains shown)
VH: B1 VH with M48I, N61S, K65Q, V68A, R72V
VL: B1 VL with R24K
B21: mAb3 H0L1* (antibody, human IgG1, V domains shown)
VH: B1 VH
VL: B1 VL with R24K
B22: mAb12 H2*L1* (antibody, human IgG1, V domains shown)
VH: B1 VH with N61S, V68A, R72V
VL: B1 VL with R24K
B23: mAb15 H3L1* (antibody, human IgG1, V domains shown)
VH: B1 VH with M48I, V68A, R72V
VL: B1 VL with R24K

What follows are binders tested against T1, human CD39 expressed at the cell surface (assay: flow cytometry, CHO cells expressing human CD39).
Experimental: Cells were incubated with various concentration of unlabeled anti-CD39 antibody from 30 μg/ml to 5×10⁻⁴ μg/ml, for 30 minutes at 4° C. After washes, cells were incubated with Goat anti-mouse H+L labeled secondary antibody for 30 min at 4° C.
Antibodies mAb1-21 were assessed for binding to CD39 by flow cytometry as described in Example 7, using CHO cells expressing human CD39 and CHO cells expressing cynomolgus (Macaca fascicularis) CD39.

Row | binding result | Binder
1 | binds | B1
2 | binds | B2
3 | binds | B3

These binders were tested against T1, human CD39 expressed at the cell surface (assay: flow cytometry titration on Ramos lymphoma cells (Mean of Fluorescence), panel L0).

Row | binding result | Binder
4 | binds | B4
5 | binds | B5
6 | binds | B6
7 | binds | B7
8 | binds | B8
9 | binds | B9
10 | binds | B10
11 | binds | B11

These binders were tested against T1, human CD39 expressed at the cell surface (assay: flow cytometry titration on Ramos lymphoma cells (Mean of Fluorescence), panel L1).

Row | binding result | EC50 (read off the curve) [mg/L] | Binder
12 | binds | – | B12
13 | binds | – | B13
14 | – | ~0.8 | B14
15 | binds | – | B15

The binders below were run against T1, human CD39 expressed at the cell surface (assay: flow cytometry titration on Ramos lymphoma cells (Mean of Fluorescence), panel L1*).

Row | binding result | Binder
16 | binds | B16
17 | binds | B17
18 | binds | B18
19 | binds | B19
20 | binds | B20
21 | binds | B21
22 | binds | B22
23 | binds | B23

Source: patent US20230025732A1 (INNATE PHARMA, published 2023)
